Laboratory results as given in paper PMC10016340 (Chemical Science, 2023).

B1: NAD-dependent protein deacetylase sirtuin-2 (protein)
chain: MAEPDPSHPLETQAGKVQEAQDSDSDSEGGAAGGEADMDFLRNLFSQTLSLGSQKERLLDELTLEGVARYMQSERCRRVICLVGAGISTSAGIPDFRSPSTGLYDNLEKYHLPYPEAIFEISYFKKHPEPFFALAKELYPGQFKPTICHYFMRLLKDKGLLLRCYTQNIDTLERIAGLEQEDLVEAHGTFYTSHCVSASCRHEYPLSWMKEKIFSEVTPKCEDCQSLVKPDIVFFGESLPARFFSCMQSDFLKVDLLLVMGTSLQVQPFASLISKAPLSTPRLLINKEKAGQSDPFLGMIMGLGGGMDFDSKKAYRDVAWLGECDQGCLALAELLGWKKELEDLVRREHASIDAQSGAGVPNPSTSASPKKSPPPAKDEARTTEREKPQ
B2: Ubiquitin carboxyl-terminal hydrolase isozyme L1 (UCH-L1) (protein)
chain: MQLKPMEINPEMLNKVLSRLGVAGQWRFVDVLGLEEESLGSVPAPACALLLLFPLTAQHENFRKKQIEELKGQEVSPKVYFMKQTIGNSCGTIGLIHAVANNQDKLGFEDGSVLKQFLSETEKMSPEDRAKCFEKNEAIQAAHDAVAQEGQCRVDDKVNFHFILFNNVDGHLYELDGRMPFPVNHGASSEDTLLKDAAKVCREFTEREQGEVRFSAVALCKAA

Tests used:
αSOs-Alexa488 = αSOs-Alexa488 (Homo sapiens, UniProt P37840); experiment: FIDA binding of αSOs to neuronal proteins in solution; conditions: up to 150 μM ligand, in solution
α-syn = α-syn (Homo sapiens, UniProt P37840); experiment: ThT aggregation kinetics of α-syn; format: biochemical; conditions: 20 μM α-syn, 5 μM ligand; α-syn alone half-time 44 h
[1] = biological target: α-syn monomers, oligomers or fibrils (Homo sapiens, UniProt P37840); experiment: Dot-blot binding assay; conditions: 0.05–0.4 μg immobilized protein, 33 μg mL^−1 α-syn monomer, oligomer or fibril

Molecule	Change in Rh of αSOs-Alexa488 on titration with ligand (αSOs-Alexa488)	Reduction of half-time of aggregation (α-syn) [fold]	Binding preference for α-syn species in dot blot [1]
B1	little change in Rh		
B2	little change in Rh	3	bound most strongly to fibrils
